This passage reports OD450nm results from patent CN102952191A.

This assay has as its target 基因重组表达的CD33胞外区 (recombinant CD33 extracellular domain) (human) (UniProt P20138). The assay is described as follows: phage ELISA, CD33-ECD coated, HRP/anti-M13 detection.
Chain of UniProt P20138 (P20138 18-259): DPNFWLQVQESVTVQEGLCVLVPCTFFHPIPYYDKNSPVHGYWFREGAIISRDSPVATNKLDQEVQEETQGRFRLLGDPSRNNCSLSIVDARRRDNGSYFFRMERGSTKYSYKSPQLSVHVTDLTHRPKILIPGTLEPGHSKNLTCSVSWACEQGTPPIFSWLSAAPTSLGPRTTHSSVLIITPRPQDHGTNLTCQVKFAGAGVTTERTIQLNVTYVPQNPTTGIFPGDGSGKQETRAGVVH

B1: 噬菌体展示的单链抗体ZJL101 (phage-displayed scFv ZJL101; phage clones No. 3 and No. 4, identical inserts) (scFv, not shown: large carriers)
scFv: MAQVQLVQSGTVVKKPGSSVKVSCKTSGGTLPNHAINWVRQASGQGLEWMGWMSPNTGDTGYARKFQGRVTMTRDTSISTAYMELSSLRSDDTAIYYCATGDPRVGHSWGQGTLVTVSSGGGGSGGGGSGGGGSDIQMTQSPPSLSASVGDRVTITCRASQTIGSHLNWYQQKPGKAPKLLITGASSLQSGVPARFTGSGFGTDFTLTISSLQVEDLATYSCQQTYNTPRTFGQGTKVEIK
As to B1, the OD450nm was found to be 1.6 OD450nm.
